Experiment: yeast display, Sf9 membrane polyspecificity reagent, FACS + sequencing; frameworks hold sequencing errors
Outline: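 Polyreactivity labels are assigned by the sorting gate from which each nanobody was recovered. The gates were low and high (top ~1%), set on anti-HA fluorescence for expression and streptavidin fluorescence for reagent binding. Before sorting, galactose-induced (36–48 hours) yeast display cells were stained for 1 hour at 4 °C with 10% biotinylated, detergent-solubilized Sf9 membrane reagent.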

| Sequence | polyreactivity (PSR sort gate) |
| --- | --- |
| QVQLVESGGGLVQAGGSLRISCAASGNIFGVYAMGWYRQAPGKERELVATITTGGSTYYADSVKGRFTISRDNAKNTVYLQMNSLKPEDTAVYYCAADVGGGNYVYYGNDYDDGYWGQGTQVTVSS | low polyreactivity |
| QVQLVESGGGLVQAGGSLRISCAASGRIFGDNGMGWYSQAPGKERELVTYADSVKGRFTISRDNAKNTVYLQMNSLKPEDTAVYYCYKDPPRFSGLDENYWGQGSQVTVSS | low polyreactivity |
| QVQLVESGGGLVQAGGSLRISCAASGRIFGINSMGWYRQAPAKERELVAAMSRGGTTNYADSVKGRFTISRDNAKNTVYLQMNSLKPEDTAVYYCNAVGFYAPNTFDYWGQGTQVTVSS | high polyreactivity |
| QVQLVESGGGLVQAGGSLRISCAASGRIFRVYAMGWYRQAPGKERELVAAISYSGGRTFYADSVKGRFTNSRDNAKNTVYLQMNSLKPEDTAVYYCAATSYSTQALPPFDYWGQGTQVTVSS | low polyreactivity |
| QVQLVESGGGLVQAGGSLRISCAASGRTFGPNAMGWYIKAPGKERELVAAIRYSGGSTYYADSVKGRFTISRDKAKNTVYLQMNSLKPEDTAVYYCAADYVSYVGERGTLYVRYDYWGQGTQVTVSS | high polyreactivity |
| QVQLVESGGGLVQAGGSLRISCAASGRTFGPYAMGWYIQAPGKEREFVAAISYSGGSTYYADSVKGRFTISRDNAKNTVYLQMNSLKPEDTAVYYCAVDIDSNSGTRDYWGQGTQVTVSS | low polyreactivity |
| QVQLVESGGGLVQAGGSLRISCAASGRTFRRYEMGWYREAPGKERELVASISSSAGSTYYADSVKGRFTISRDNAKNTVYFQMNSLKPEDTAVYYCAFVPTVYARSRYGYWGQGTQVTVSS | high polyreactivity |
| QVQLVESGGGLVQAGGSLRISCAASGRTFYDNTMGWYRQAPGKERELVAAINWSGTRTYYADSVKARFTISRDNAKNTVYLQMNSLKPEDTAVYYCAADGPFRRTYGYWGLGTQVTVSS | low polyreactivity |
| QVQLVESGGGLVQAGGSLRISCAASGRTVAIYAMGWYIKAPGKEREFVAAISWSGGDTYYADSVKGRFTISRDNAKNTVYLQMNSLKPVDPAVYYCAARDNDYEGRDLQYELDYWGQGTQVTVSS | low polyreactivity |
| QVQLVESGGGLVQAGGSLRISCAASGRTVWNTLGWYRQAPGKERELVAAISYSGGTTYYADSVKGRFTISRDNAKNTVYLQMNSLNPEDTAVYYCAAVRVLRGVKYNYWGQGTEVTVSS | high polyreactivity |
| QVQLVESGGGLVQAGGSLRISCAASGSIFASNTMGWYRQARGTERELVAGITKIGSSTYYADSVTGRFTISRDNAKNTVYLKMNSLKPEDTAVYYCNAYGPNIYSSRYDYWGQGTQVTVSS | low polyreactivity |
| QVQLVESGGGLVQAGGSLRISCAASGSIFDYYAMGWYIQAPGKERELVAAISWSGGSTYYADSVKGRFTISRDNAKNTVYLQMNSLKPVDTAVYYCAAEYYGGEFDYWGQGTQVTVSS | low polyreactivity |
| QVQLVESGGGLVQAGGSLRISCAASGSIFGYYAMGWYRQAPGKERELVAVITWNTGNTYYADSVKGRFTISRDNAKNTVYLQMNSLKPEDNAVYYCAADQTGWGDTYDYWGQGTQVTVSS | low polyreactivity |
| QVQLVESGGGLVQAGGSLRISCAASGSIFLYNDMGWYRQAPGKERELVAAITSTGNTNYADSVKGRFTISRDNAKNTVYLQMNSLNRKRPRSITALNVSCTSVVVGYDYWGQGTQVTVSS | low polyreactivity |
| QVQLVESGGGLVQAGGSLRISCAASGSIFLYYAMGWYRQPPGKEREFVAAISYSGGRTYYADSVKGRFTISRDNAKNTVYLQMNSLKPEDTAVYYCNALYRLGVSGLTQSRYGYWGQGTQVTVSS | high polyreactivity |
| QVQLVESGGGLVQAGGSLRISCAASGSIFRGNAMGWYRQAPGKERELVAAISKSGGSTYYADSVKGRITISRDNAKNTVYLQMNSLKPEDTAVYYCAARTTYLYGMYYWGQGTQVTVSS | low polyreactivity |
| QVQLVESGGGLVQAGGSLRISCAASGSIFRQYAMGLYRQAPGKEWELVAAITYSGGNTYYADSVKGRFTISRDNAKNTVYLQMNSLKPEDTAVYYCAADYGSRSWEYNYWGQGTQVTVSS | low polyreactivity |
| QVQLVESGGGLVQAGGSLRISCAASGSIFRVYAMGWYRPAPGKERELVASITLSGGSTYYADSVKGRVTISRDNAKNTVYLQMNSLKPDDTAVYSCAARKRYRNPNTSRGMDYWGQGTQVNVSS | high polyreactivity |
| QVQLVESGGGLVQAGGSLRISCAASGSIFRYYAMGWYRQAPGKEREFVDSITYRGGRTYYADSVKGRFTISRDNAKNTVYLQMNSLKPEDTAVYYCAARYRVRYYERDYWGQGTQVTVSS | high polyreactivity |
| QVQLVESGGGLVQAGGSLRISCAASGSIFTAYAMGWYRQAPGKERELVAAITQSAGSTYADSVKGRFTISRDNAKNTVYLPMHSLNQEDTAVSYCAARYRYPYYARYGYWGQGTQVTVSS | high polyreactivity |
| QVQLVESGGGLVQAGGSLRISCAASGSIFWDNVMGWYRQAPGKERELVADIDSWDGGSTYYADSVKGRFTISRDNAKNTVYLQMNSLKPEDTAVYYCNTDVLWWRGGDDYWGQGTQVTVSS | low polyreactivity |
| QVQLVESGGGLVQAGGSLRISCAASGSIFWRYVMGWYRPAPGKERELIAAISSGGGITYYADSVKGRFTISRDNAKNTVYLQMNSLKPEDTAVYYCAARTYRGQYYTGFGFGYWGQGSQVTVSS | high polyreactivity |

| Sequence | polyreactivity (PSR sort gate) |
| --- | --- |
| QVQLVESGGGLVQAGGSLRISCAASGSLFYRYAMGWYRQAPGKEREMVAAINDSGGGTYYADSVKGRFTISRDKAKNTVYLQMNSLKPEDTAVYYCAAATHNKHTARDDYWGQGTQVNVSS | low polyreactivity |
| QVQLVESGGGLVQAGGSLRISCAASGSNSNANAMGWYRQAPGKQREFVADISRSRGRTYYADSVKGRFTISRDNAKYTVYLQMNSLKPEVTAVYYCAAGGFGAGNNYWGQGTQVTVSS | high polyreactivity |
| QVQLVESGGGLVQAGGSLRISCAASGSTFDGNAMGWYRQAPGKERELVAAISDGDSTTNADSVKGRFTISRDNAKNTVYLQMNSLKPEDTAVYYCAARSPGDQRLGRHYYGEFDYWGQGTQVTVSS | low polyreactivity |
| QVQLVESGGGLVQAGGSLRISCAASGSTFLYNNMGWYRQAPGKERELVAAITWSGGNTYYADSVKGRFTISRDNAKNTVYLQMNSLKPEDTAVYYCNAVWYPPKRKCFDYWGQGTQVTVSS | low polyreactivity |
| QVQLVESGGGLVQAGGSLRISCAASGSTFRRYPIGWYRQAPGKEREFVAVITSSGVITYYADSVKGRFTISRDNAKNTVYLQMNSLKPEDTAVYYCATDARSMDYWGQGTQVTVSS | low polyreactivity |
| QVQLVESGGGLVQAGGSLRISCAASGSTFVPNTMGWYRQAPGKERELVAAITYSGGSTYYADSVKGRFTISRDYAKNTVYLLMNSLKPEDTEVYYCAAEGTTWYYDMDYWGQGTQVTVSS | low polyreactivity |
| QVQLVESGGGLVQAGGSLRISCAASGSTFWYYAMGWYRQAPGKERELVAAINSDDSTNYADSVKGRFTISRDNAKNTVYLQMNSLKPEDTAVYYCNRGFVYSTTGLWRYYDFDYWGQGTQVTVSS | low polyreactivity |
| QVQLVESGGGLVQAGGSLRISCAASGSTFWYYAMGWYRQAPGKERELVAVINSGGITNYADSVKGRFTISRDNAKNTVYLQMNSLKPEDTAVYYCNKRLYWGYGEMDYWGQGTQVTVSS | low polyreactivity |
| QVQLVESGGGLVQAGGSLRISCAASGSTFYRNAMGWYRQAPGKERELVARISSRGGRTSYADSVKGRFTISRDNAKNNVYFQMNSLKPEDTAVYYCAADYYVNRIQRYDYWGQGTQVTVSS | high polyreactivity |
| QVQLVESGGGLVQAGGSLRISCAASGSTFYVNAMGWYRQAPGKERELVAAIDGGDTYYADSVKGRFTISRDNAKNTVYLQMNSLKPEDTAVYYCAAESLPEISVGLGYWGQGTQVTVSS | low polyreactivity |
| QVQLVESGGGLVQAGGSLRISCAASGTFGSNAMGWYRQAPGKERELVAAINSGGTTKYADSVKGRFTISRDNAKNTVYLQMNSLKPEDTAVYYCNAREGVFRYPVAHDYWGQGTQVTVSS | low polyreactivity |
| QVQLVESGGGLVQAGGSLRISCAPSGITFKDYAMGWYRQAPGKERELVAVISYSGGSTYYADTVKGRFTISRDNAKNTVYLQMNSLKPEDTAVYYCAARVGPEYDWGQGTQVTVSS | low polyreactivity |
| QVQLVESGGGLVQAGGSLRISCAPSGRTFGINAMGWYRQAPGKERELVAVISFGDGGTYYADSVKGRFTISRDNAKNTVYLQMNSLKPEDTAVYYCATDYQSTSVWGGHFVINPYDYWGQGTQVTVSS | low polyreactivity |
| QVQLVESGGGLVQAGGSLRISCAPSGSTFYTNAMGWYRQAPGKEREFVAAISWSGSSTYADSVKGRFTISRDNAKNTVYLQMNSLKPEDTAVYYFAADWFKLRTDYYWGQGTQVTVSS | low polyreactivity |
| QVQLVESGGGLVQAGGSLRISCASSGFTIWGYTMVWYRQAPGKERELVAAITSTGSTYYADSVKGRFTISRDNAKNTVYLQMNSLKPEDTAVYYCAAESYYGYDYWGQGTQVTVSS | low polyreactivity |
| QVQLVESGGGLVQAGGSLRISCSASGSIFTGYAMGWYRPAPGKERELVAAISNSGTSTYYADSVKGRFTISRDNANNTVYLQMNSLKPEDTAVYYCNTVGHRWLSDDDYWGQGTQVTVSS | low polyreactivity |
| QVQLVESGGGLVQAGGSLRISCVASARTFYRYAMGWYRQAPGKERELVAVITRGGSTYYADSVKGRFTISRDNAKNPVYLQMNSLKPEDTAVYFCNADGRVQRKYDYWGQGTQVTVSS | high polyreactivity |
| QVQLVESGGGLVQAGGSLRISFAASGFFFARYAMGWYRQEPGKERELVAAISGSGARTYYADSVKGRFTNSRDNAKNTVYLQMNSLKPEDTAVYYCAVRGSWYSEHNYWGQGTQVTVSS | high polyreactivity |
| QVQLVESGGGLVQAGGSLRISSAASALIIYDNMGRYRQAPGKERELVAAISSSGGSTSYADSVKGRFTFSRDNANNTVYLQMNSLKPEDTAVYYSAADSYPAYLGFVGFDYWGQGTQVTVSS | low polyreactivity |
| QVQLVESGGGLVQAGGSLRISSAASGPTFVPNAMGSYRQAPGKERELVATITSGGNTYYADSVKGRFTISRDNAKNTVYLQMNSLKPEDTAVYYCNRDWIYWGPRRNSGEYWGQGTQVTVSS | low polyreactivity |
| QVQLVESGGGLVQAGGSLRLCCAACGRIFYAYAMGWYRQAPGKERELVAAISSSGGRTYYADSVKGRFTISRDNAKNTVYLQMNSLKPEDTAVYYSAAVHYYKFEWGQRTQVTVSS | high polyreactivity |

From the nanobody polyreactivity screen of Harvey et al. (2022)
